Measurements from patent US20250326843A1 (HARBOUR BIOMED SHANGHAI, published 2025).

T1: murine B7-H4 (murine, UniProt Q7TSP5 25-257)
T1 construct: whole, on cells; also called mB7-H4
T1 sequence (looked up): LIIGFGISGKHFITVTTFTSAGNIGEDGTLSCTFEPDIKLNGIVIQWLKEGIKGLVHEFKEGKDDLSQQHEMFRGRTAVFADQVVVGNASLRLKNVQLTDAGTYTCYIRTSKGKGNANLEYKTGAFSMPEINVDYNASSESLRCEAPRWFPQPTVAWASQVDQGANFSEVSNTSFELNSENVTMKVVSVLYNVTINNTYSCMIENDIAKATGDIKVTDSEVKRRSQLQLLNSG

T2: human B7-H4 (human, UniProt Q7Z7D3 25-282)
T2 construct: whole, on cells; also called huB7-H4; B7-H4 on CHO-K1/huB7-H4, SK-BR-3 and MDA-MB-468 cells
T2 sequence (looked up): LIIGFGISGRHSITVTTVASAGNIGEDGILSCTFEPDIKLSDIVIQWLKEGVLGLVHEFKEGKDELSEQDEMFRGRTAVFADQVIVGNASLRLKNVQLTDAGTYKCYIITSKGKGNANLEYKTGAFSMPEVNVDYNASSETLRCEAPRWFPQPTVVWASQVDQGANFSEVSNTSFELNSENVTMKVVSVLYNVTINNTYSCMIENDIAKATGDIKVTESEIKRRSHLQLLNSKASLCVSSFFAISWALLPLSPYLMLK

B1: B7-H4×CD3 bispecific antibody PR003733 (bispecific antibody, human IgG1, lambda, L234A L235A)
light: QAVVTQEPSLTVSPGGTVTLTCRSSTGAVTTSNYANWVQQKPGQAPRGLIGGTNKRAPWTPARFSGSLLGDKAALTLLGAQPEDEAEYFCALWYSNLWVFGGGTKLTVLGQPKAAPSVTLFPPSSEELQANKATLVCLISDFYPGAVTVAWKADSSPVKAGVETTTPSKQSNNKYAASSYLSLTPEQWKSHRSYSCQVTHEGSTVEKTVAPTECS
heavy: not shown
chain: EIVMTQSPASLSVSPGERATLSCRASQSVSSNLAWYQQKPGQAPRLLIYGASTRATGIPARVSGGGSGTEFTLTISSLQSEDFAVYYCQQYKNWPFTFGPGTKLEIKGGGGSGGGGSGGGGSGGGGSQVQLVQSGAEVKKPGSSMRVSCKASEDTFSSYAISWVRQAPGQGLEWMGGTAPIFGTTNYAQKFQGRVTITADKSTSTAYMELSSLRSEDTAVYYCARGGPYFDYWGQGTLVTVSSASEPKSSDKTHTCPPCPAPEAAGGPSVFLFPPKPKDTLMISRTPEVTCVVVDVSHEDPEVKFNWYVDGVEVHNAKTKPREEQYNSTYRVVSVLTVLHQDWLNGKEYKCKVSNKALPAPIEKTISKAKGQPREPQVCTLPPSREEMTKNQVSLSCAVKGFYPSDIAVEWESNGQPENNYKTTPPVLDSDGSFFLVSKLTVDKSRWQQGNVFSCSVMHEALHNHYTQKSLSLSPGK
notes: Fab-Fc-scFv asymmetric structure (structure A); CD3 arm from PR001848, B7-H4 arm from PR003366
B2: B7-H4×CD3 bispecific antibody PR003899 (bispecific antibody, human IgG1, lambda, L234A L235A)
light: B1 light
heavy: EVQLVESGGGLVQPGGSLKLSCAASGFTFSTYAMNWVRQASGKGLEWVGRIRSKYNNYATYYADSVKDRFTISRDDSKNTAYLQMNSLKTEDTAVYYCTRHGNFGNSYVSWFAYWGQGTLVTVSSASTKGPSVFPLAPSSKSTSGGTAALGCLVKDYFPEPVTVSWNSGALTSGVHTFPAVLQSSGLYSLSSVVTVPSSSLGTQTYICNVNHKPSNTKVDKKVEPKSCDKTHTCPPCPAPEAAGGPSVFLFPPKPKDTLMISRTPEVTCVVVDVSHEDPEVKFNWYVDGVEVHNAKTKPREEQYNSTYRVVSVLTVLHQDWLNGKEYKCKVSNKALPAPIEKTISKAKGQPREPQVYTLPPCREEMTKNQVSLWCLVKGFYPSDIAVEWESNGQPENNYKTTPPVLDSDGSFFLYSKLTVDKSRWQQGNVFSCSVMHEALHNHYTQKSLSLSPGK
chain: B1 chain
notes: Fab-Fc-scFv asymmetric structure (structure A); CD3 arm from PR003886, B7-H4 arm from PR003366

Tests used:
murine B7-H4 = biological target: T1, murine B7-H4; experiment: flow cytometry on CHO-K1/mB7-H4 cells
From the text: (§1) The CHO-K1 cell strain CHO-K1/huB7-H4 over-expressing human B7-H4 (produced in-house by Harbour BioMed), the CHO-K1 cell strain CHO-K1/cynoB7-H4 over-expressing cynomolgus monkey B7-H4 (produced in-house by Harbour BioMed), the CHO-K1 cell strain CHO-K1/mB7-H4 over-expressing murine B7-H4 (produced in-house by Harbour BioMed), SK-BR-3 and MDA-MB-468 cells were digested. T cells were isolated using the human T cell isolation kit (Miltenyi, #130-096-535) as described in the method of the instruction, and resuspended with PBS containing 2% FBS. The cell density was adjusted to 1×10⁶ cells/mL. The cells were seeded onto a 96-well V-bottom plate (Coming, #3894) at 100 μL/well, followed by the addition of test antibodies diluted in a 3-fold gradient at a concentration that was 2 times the final concentration, each at 100 μL/well. The cells were incubated away from light at 4° C. for 2 h. Thereafter, the cells in each well were rinsed twice with 100 μL of pre-cooled PBS containing 2% BSA, and centrifuged at 500 g at 4° C. for 5 min, and then the supernatant was discarded. […] Finally, the cells in each well were resuspended with 200 μL of pre-cooled PBS containing 2% BSA, and the fluorescence signal values were read using an ACEA Novocyte3000 flow cytometer.

human B7-H4 = biological target: T2, human B7-H4; experiment: flow cytometry on CHO-K1/huB7-H4 cells
From the text: as §1

Binder	binding result (murine B7-H4)	binding result (human B7-H4)
B1	binds	–
B2	binds	binds
